Reference: US20230322910A1 (published 2023)
Where a chain is given by its changes, count along the chain named.

T1: PfRipr5 (fragment of Ripr, positions 720-934 of SEQ ID NO: 17), made by wheat germ cell-free synthesis with … (UniProt O97302 720-934)
T1 chain: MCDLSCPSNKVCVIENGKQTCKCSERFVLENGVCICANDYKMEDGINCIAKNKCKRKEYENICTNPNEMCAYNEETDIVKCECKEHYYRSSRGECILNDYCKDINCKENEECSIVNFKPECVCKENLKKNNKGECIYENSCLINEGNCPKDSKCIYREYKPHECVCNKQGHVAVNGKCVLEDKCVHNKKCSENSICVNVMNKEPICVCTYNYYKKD

B1: - (other)
chain: T1 chain
B2: mouse monoclonal antibody 29B11 (antibody, V domains shown)
VH: EVQLQQSGPELMKPGASVKISCKTSGYTFTEYTMHWVKQSHGKSLEWIGGIDPNNGITIYDQKFKGKATLTVDKSSSTAYMELRSLTSEDSAVYYCTRYYYGHYFDYWGQGTTLTVSS
VL: DVLMTQTPLSLPVSLGDQASISCRSSQSIVHNNGHTYLEWYLQKPGQSPKLLIYKVSNRFSGVPDRFSGSGSGTDFTLKISRVEAEDLGIYYCFQDSHVPWTFGGGTKLEIKR
B3: mouse monoclonal antibody 26H4 (antibody, V domains shown)
VH: B2 VH with M12V, I57V, D61N, K63N, Y95H, T97A
VL: B2 VL with N32S, H35N, I90V, D96N, P100T

Columns and labels:
[1] = target: 4B7; test: SPR; U-value 95, negligible response
[2] = target: T1, PfRipr5 (fragment of Ripr, positions …); test: SPR

Row | Binder | Kd [1] [nM] | Kd [2] [nM]
1 | B1 | 0.0693 | –
2 | B2 | – | 2.19
3 | B3 | – | 0.69
